Experiment: yeast display, Sf9 membrane polyspecificity reagent, FACS + sequencing; frameworks hold sequencing errors
Outline: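 Polyreactivity labels are assigned by the sorting gate from which each nanobody was recovered. The gates were low and high (top ~1%), set on anti-HA fluorescence for expression and streptavidin fluorescence for reagent binding. Before sorting, galactose-induced (36–48 hours) yeast display cells were stained for 1 hour at 4 °C with 10% biotinylated, detergent-solubilized Sf9 membrane reagent.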

Sequence: QVQHVESGGGLVQAGGSHRLSCAASGRIFTQNSMGWYRQAPGKERELVAAINATDGSTYADSVKGRFTISRDNAKNTVYLQMKSLKREDTSVYYCYFTGGPYDFTRWSEFDHWGQGTQVTVSS
- polyreactivity (PSR sort gate): low polyreactivity

Sequence: QVQLVESGGGLVQAGGSLRLSCPATGFTFSVYVMAWYRLAPGKERELVAAISSGGDTTYADSVKGRFTISRDNAKNTVYLQMNSLKPEDTAVYYCAAYRVILYYLYDYWGQGTQVTVSS
- polyreactivity (PSR sort gate): low polyreactivity

Sequence: QVQLVESGGGLVQAGGSLRLSCAASGSILTVYAMGWYRQAPGKERELVARIRSGDRTYYADSVKGRFTISRDNAKNSVYLQMNSLKPEDTAVYYFAAGSQLRYYHTNWDSFNYWGQGTQVTVSS
- polyreactivity (PSR sort gate): low polyreactivity

Sequence: QVQLVESGGRLVQAGGSLRLSCAASGFTIPHYAMGWYRQAPGKERELVAVISFSGGRTYYADSVKGRFTISRDNAKNTVYLQMNSLKPEDTAVYYCPAGFWDDYGKYYYWGQGTQVTVSS
- polyreactivity (PSR sort gate): high polyreactivity

Sequence: QVQLVESGGGLVQAGGSLRLSCAASGFTFYRNTMGWYRQAPGKERELVARIRSVGSTYYADSVKGRFTISRDNAKNTVFLQMNSLKREDTAVYYCAAGPVYDWRGGALRYYYWGQGTQVTVSS
- polyreactivity (PSR sort gate): high polyreactivity

Sequence: QVQLVESGGGLVQAGGSLRLSCAASGRTFYGNAMGWYRQAPGKERELVAAITSGGGSTRYADSVKGRFTISRDNAKNTVYLQMNSLKPEDTAVYYCNATLGNFGYRRYSGHTRYYYWGQGTQVTVSS
- polyreactivity (PSR sort gate): high polyreactivity

Sequence: QVQLVESGGGLVQAGGSLRLSCAASGRILPSNAMGWYRQAPGKDRELVATISSSGGDTYYADSVKGRFTISRDNAKNTVYLQMKSLKPEDTAVYSCNAAGRTPSTGFDYDYWGQGTQVTVSS
- polyreactivity (PSR sort gate): low polyreactivity

Sequence: QVQLVESGGGLVQAGGSLRLSCAASGSIFAYYAMGWYRQAPGKERELVARIRRRSSSTFYADSVKGRFTISRDNAKYTVYLQMNSLKPEDTAVYYCAVRGPGTSTYWYHEYEYWGQGTQVTVSS
- polyreactivity (PSR sort gate): high polyreactivity

Sequence: QVQLVESGGGLVQAGGSLRLICAASGFIFYGNAMGWYRQAPGKERELVAAISSSGGSTYYADSVKGRFTISRDNAKNTVYLQMNSLKPEDTAVYYCNKYYLVKGPYDWGQGTQVTVSS
- polyreactivity (PSR sort gate): high polyreactivity

Sequence: QVQLVESGGGLVQAGGSLRLSCAASGITFRWYAMGWYRQAPGKERELVALIDGRGASTYADSVKGRFTISRDNAKNTVYLQMNSLKPEDTAVYYCAVAQVRVTYLWVRKFYYWGQGTQVTVSS
- polyreactivity (PSR sort gate): high polyreactivity

Sequence: QVQLVESGVGLVPAGGSLRLSCAASGSTFSANAMGWYRQAPGKERELVAAITYRGANTYYADSVKGRFTISRDNAKNTVYLQLNSLKPEDTAVYYCAAEYAYHHVGFGYWGQGTQVTVSS
- polyreactivity (PSR sort gate): low polyreactivity

Sequence: QVQLVETRGGLVQAGGSLRLSCAASGPIIRYYDMGCYRQAPGTERELVSASNAAGTSTYYADSVKGRFTISRDNAKNTVYLQMNSLKPEDTAVYYCAAQPYYGGGCYCYTRNYKLNYWGQGTQVTVSS
- polyreactivity (PSR sort gate): high polyreactivity

Sequence: QVQLVESGGGLVQAGGSLRLSCAASGSTFRYNTMGWYRQAPGKERELVARITSVGSTNYADSVKGRFTISRDNAKNTVYLQMNSLKPEDTAVYYCATTRPIRRTSARYNYWGQGTQVTVSS
- polyreactivity (PSR sort gate): low polyreactivity

Sequence: QVQLVESGGGLVQAGGSLRLSCAASGSTFAQYAMGWYRQAPGKERELVAAISRGGGSTYYADSVKGRFTISRDNAKNTVYLQMNSLKPEDTAVYYCNARTSHYDKYGYWGQGTQVTVSS
- polyreactivity (PSR sort gate): high polyreactivity

Sequence: QVQLVESGGGLDQAGGSLRLSCAASGITFDFNDLGWYRQAPGKERELVACINGNSDSTYYADSVKGRFTISRDIAKNTVFLQMNSLKPEDTAVYYCNVPTVRYRYDSWGQGTQVTVSS
- polyreactivity (PSR sort gate): low polyreactivity

Sequence: QVQLVESGGGLVQAGGSLRLSCAASGRTFYYYVMGWYRQAPGKERELVAGITWSGGGTYYADSVKGRFTISRYNAKNTVYLQMNRLKPEDTAVYYCAKKDTLSNRWYGYWGEGTQVTVSS
- polyreactivity (PSR sort gate): high polyreactivity

Sequence: QVQLVESGGGLVQAGGSLRLSCAASGSTFKSYAMGWYRQAPGKERELVAAITHRGSTYYADSVKGRFTISRDNAKNTVYLQMNSLKPEDTAVYYCNVRRIGNGRRVDYWGQGTQVTVSS
- polyreactivity (PSR sort gate): high polyreactivity

Reference: the nanobody polyreactivity screen of Harvey et al. (2022)
